The values below come from paper PMC5491343 (SLAS discovery, 2016).

Test [1] deals with 2pY ITAM peptide ITAM (Homo sapiens) (UniProt P20963). The following applies: cited from earlier work.
The target of the next test is T1, ZAP-70 (Homo sapiens, UniProt P43403).
T1 sequence (P43403 1-606): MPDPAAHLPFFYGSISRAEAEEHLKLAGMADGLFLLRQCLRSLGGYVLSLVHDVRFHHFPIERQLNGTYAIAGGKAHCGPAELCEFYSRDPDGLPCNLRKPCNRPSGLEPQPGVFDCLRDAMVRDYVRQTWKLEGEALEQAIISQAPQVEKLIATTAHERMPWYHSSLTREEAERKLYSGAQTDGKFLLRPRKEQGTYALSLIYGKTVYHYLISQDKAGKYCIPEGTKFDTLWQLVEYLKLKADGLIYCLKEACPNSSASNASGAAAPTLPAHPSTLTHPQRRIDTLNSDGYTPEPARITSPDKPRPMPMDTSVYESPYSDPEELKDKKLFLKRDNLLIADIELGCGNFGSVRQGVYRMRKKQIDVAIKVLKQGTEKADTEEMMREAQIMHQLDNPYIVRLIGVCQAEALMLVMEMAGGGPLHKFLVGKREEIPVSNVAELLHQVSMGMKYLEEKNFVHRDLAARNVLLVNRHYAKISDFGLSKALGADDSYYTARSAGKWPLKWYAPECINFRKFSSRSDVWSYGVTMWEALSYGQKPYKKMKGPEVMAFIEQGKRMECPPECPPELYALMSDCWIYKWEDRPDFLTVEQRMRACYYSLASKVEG
The test can be described thus: TR-FRET ZAP-70:2pY binding / inhibition assay. The note with it: read-out: KD, ZAP-70 binding to AlexaFluor488-2pY. (In general: Time-resolved FRET reads energy transfer from a long-lived donor to a nearby acceptor.)

Test [2] concerns the target T2, isolated tandem SH2 domains of ZAP-70 (Homo sapiens, UniProt P43403).
T2 sequence (P43403 1-259 limits assumed): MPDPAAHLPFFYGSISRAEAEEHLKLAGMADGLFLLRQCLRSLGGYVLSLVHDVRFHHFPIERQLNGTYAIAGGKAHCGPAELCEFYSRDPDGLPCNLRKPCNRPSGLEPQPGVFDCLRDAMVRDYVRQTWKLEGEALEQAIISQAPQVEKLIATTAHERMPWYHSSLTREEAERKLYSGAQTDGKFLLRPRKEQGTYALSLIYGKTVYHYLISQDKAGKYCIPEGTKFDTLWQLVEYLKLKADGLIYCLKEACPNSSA
Put plainly: Fluorescence polarization assay with the isolated tandem SH2 unit. Type of test: binding. The note with it: data not shown.

The target of another test is ZAP-Src chimera. The test can be described thus: Fluorescence polarization 2pY binding to ZAP-Src chimera. The note with it: read-out: binding constant for 2pY peptide and the ZAP-Src chimera; FP, TAMRA-2pY.
In test [3] the target is T3, ZAP-70 (zeta-associated protein of 70 kDa), construct spanning residues 1-606, wild type (UniProt P43403 1-606).
T3 sequence (looked up): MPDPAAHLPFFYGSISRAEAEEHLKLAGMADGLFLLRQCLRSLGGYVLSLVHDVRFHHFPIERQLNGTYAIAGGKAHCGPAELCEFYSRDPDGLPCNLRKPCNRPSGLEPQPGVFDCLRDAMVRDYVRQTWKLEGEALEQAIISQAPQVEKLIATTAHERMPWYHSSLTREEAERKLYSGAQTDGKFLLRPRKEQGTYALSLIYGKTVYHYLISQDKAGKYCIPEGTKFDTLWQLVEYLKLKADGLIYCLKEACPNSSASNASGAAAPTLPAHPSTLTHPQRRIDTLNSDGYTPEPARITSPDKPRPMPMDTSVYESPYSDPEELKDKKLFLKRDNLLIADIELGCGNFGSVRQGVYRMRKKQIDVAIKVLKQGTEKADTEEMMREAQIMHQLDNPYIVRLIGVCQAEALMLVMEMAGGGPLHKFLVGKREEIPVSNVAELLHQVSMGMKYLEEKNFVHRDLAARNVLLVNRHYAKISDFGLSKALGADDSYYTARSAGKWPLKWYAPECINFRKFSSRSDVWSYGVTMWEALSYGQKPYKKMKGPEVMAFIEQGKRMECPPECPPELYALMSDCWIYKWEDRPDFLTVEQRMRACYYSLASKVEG
The test can be described thus: fluorescence polarisation. Background: Fluorescence polarisation rises when a labelled molecule tumbles more slowly, as on binding a larger partner.

In another test the target is T4, ZAP-70 Y315F/Y319F (UniProt P43403 1-619, Y315F | Y319F).
T4 sequence (looked up): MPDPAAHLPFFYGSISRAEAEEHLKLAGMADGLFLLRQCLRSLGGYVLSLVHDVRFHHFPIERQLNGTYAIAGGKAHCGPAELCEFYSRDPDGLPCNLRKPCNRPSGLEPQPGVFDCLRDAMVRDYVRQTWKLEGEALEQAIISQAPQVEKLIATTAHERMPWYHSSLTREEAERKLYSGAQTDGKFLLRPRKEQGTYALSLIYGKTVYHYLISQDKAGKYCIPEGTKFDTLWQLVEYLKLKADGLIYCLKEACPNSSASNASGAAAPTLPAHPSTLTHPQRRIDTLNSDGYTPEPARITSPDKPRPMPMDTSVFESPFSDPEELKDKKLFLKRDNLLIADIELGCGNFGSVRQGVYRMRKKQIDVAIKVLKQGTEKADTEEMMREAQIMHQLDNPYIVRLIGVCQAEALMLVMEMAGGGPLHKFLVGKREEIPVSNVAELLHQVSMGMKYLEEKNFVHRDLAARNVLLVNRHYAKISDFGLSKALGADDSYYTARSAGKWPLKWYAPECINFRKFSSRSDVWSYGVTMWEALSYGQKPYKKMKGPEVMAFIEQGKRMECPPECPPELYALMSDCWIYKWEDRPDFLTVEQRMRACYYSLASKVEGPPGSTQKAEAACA
Put plainly: fluorescence polarisation.

Square brackets hold non-standard residues; d marks the D form. Ends that are not written are not given here. Peptide text beside a SMILES is read from it. * marks the point of attachment. X1 = CN(C)c1ccc2c(-c3ccc(C(=O)NCCCCCN4C(=O)CC(*)C4=O)cc3C(=O)[O-])c3ccc(=[N+](C)C)cc-3oc2c1; pY = N[C@@H](Cc1ccc(OP(=O)(O)O)cc1)C(=O)O

For the molecule ZAP-70 (from UniProt P43403), the Kd in test [1] is 76.6 nM.

For “2pY: fluorescently labeled doubly phosphorylated ITAM peptide of the ζ chain (CGNQLpYNELNLGRREEpYDVLD) (C(TAMRA C5 maleimide)GNQL[pY]NELNLGRREE[pY]DVLD)”, the Kd in the test with ZAP-70 was 55.4 ± 7.1 nM. Moreover, the “dissociation constant, tandem SH2 unit and 2pY peptide” value in test [2] is recorded as “nearly identical to the Src-ZAP fusion protein”.

`CC(C)C[C@H](NC(=O)[C@H](CC(N)=O)NC(=O)[C@H](CC(C)C)NC(=O)[C@H](CCC(=O)O)NC(=O)[C@H](CC(N)=O)NC(=O)[C@H](Cc1ccc(OP(=O)(O)O)cc1)NC(=O)[C@H](CC(C)C)NC(=O)[C@H](CCC(N)=O)NC(=O)[C@H](CC(N)=O)NC(=O)CNC(=O)[C@@H](N)CSC1CC(=O)N(CCCCCNC(=O)c2ccc(-c3c4ccc(=[N+](C)C)cc-4oc4cc(N(C)C)ccc34)c(C(=O)[O-])c2)C1=O)C(=O)NCC(=O)N[C@@H](CCCNC(=N)N)C(=O)N[C@@H](CCCNC(=N)N)C(=O)N[C@@H](CCC(=O)O)C(=O)N[C@@H](CCC(=O)O)C(=O)N[C@@H](Cc1ccc(OP(=O)(O)O)cc1)C(=O)N[C@@H](CC(=O)O)C(=O)N[C@H](C(=O)N[C@@H](CC(C)C)C(=O)N[C@@H](CC(=O)O)C(=O)O)C(C)C` (stereo partly drawn) [TAMRA-2pY] (H-C(X1)GNQL[pY]NELNLGRREE[pY]DVLD-OH; N-terminus and C-terminus assumed): the Kd on ZAP-Src chimera worked out at 15.8 ± 1.3 nM.

B1: TAMRA-labeled ITAM 2pY peptide (CGNQLpYNELNLGRREEpYDVLD), from the first ITAM of the T-cell receptor zeta chain (peptide)
peptide: C(TAMRA C5 maleimide)GNQL[pY]NELNLGRREE[pY]DVLD
On to B1, for which the Kd in test [3] worked out at 45.7 ± 4.7 nM; with ZAP-70 Y315F/Y319F it was 82.2 ± 5.6 nM.
